Molecular target: human complement regulatory factor H (hfH) (human, UniProt P08603 19-1231)
Test: SPR

Sequence of human complement regulatory factor H (hfH) (P08603 19-1231): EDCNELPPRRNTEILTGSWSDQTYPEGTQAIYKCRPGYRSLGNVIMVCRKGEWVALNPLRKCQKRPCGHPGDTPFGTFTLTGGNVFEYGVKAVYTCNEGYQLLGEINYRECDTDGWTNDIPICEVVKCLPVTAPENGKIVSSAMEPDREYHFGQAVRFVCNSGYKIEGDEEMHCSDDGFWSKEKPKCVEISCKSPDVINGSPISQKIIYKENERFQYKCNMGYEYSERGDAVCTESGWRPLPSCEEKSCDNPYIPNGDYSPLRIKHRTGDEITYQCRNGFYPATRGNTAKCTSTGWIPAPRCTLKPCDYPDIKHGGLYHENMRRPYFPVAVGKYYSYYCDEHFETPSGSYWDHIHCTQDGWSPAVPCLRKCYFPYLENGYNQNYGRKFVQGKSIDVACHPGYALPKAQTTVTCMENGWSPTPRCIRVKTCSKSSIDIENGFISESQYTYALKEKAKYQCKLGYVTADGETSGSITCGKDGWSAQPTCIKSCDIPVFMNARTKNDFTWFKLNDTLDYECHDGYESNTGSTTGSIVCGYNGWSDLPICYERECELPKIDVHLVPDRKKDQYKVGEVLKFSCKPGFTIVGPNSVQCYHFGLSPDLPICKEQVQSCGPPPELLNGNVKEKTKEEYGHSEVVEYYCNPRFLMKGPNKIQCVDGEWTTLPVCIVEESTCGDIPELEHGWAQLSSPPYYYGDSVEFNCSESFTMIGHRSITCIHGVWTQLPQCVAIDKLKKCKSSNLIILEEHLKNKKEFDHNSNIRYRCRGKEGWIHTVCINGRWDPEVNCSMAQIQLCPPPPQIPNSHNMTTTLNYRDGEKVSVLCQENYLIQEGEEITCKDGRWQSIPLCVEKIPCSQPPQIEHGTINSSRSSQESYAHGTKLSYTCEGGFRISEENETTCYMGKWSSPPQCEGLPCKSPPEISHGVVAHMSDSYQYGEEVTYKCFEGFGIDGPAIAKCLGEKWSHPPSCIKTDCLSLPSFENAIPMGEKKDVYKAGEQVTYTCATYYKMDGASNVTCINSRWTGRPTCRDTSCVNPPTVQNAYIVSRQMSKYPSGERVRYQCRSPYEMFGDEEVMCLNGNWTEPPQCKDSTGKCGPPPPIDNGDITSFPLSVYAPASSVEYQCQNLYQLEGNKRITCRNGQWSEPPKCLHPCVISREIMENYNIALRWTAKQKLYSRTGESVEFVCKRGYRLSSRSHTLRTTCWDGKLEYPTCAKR

B1: factor H binding protein (fHbp) variant1 (natural protein)
chain: CSSGGGGVAADIGAGLADALTAPLDHKDKGLQSLTLDQSVRKNEKLKLAAQGAEKTYGNGDSLNTGKLKNDKVSRFDFIRQIEVDGQLITLESGEFQVYKQSHSALTAFQTEQIQDSEHSGKMVAKRQFRIGDIAGEHTSFDKLPEGGRATYRGTAFGSDDAGGKLTYTIDFAAKQGNGKIEHLKSPELNVDLAAADIKPDGKRHAVISGSVLYNQAEKGSYSLGIFGGKAQEVAGSAEVKTVNGIRHIGLAAKQ
With B1 the Kd was 0.0227 µM.

From publication PMC9079162 (Computational and Structural Biotechnology Journal, 2022)
